Test results as given in US9254322B2, “Compositions comprising E-selectin antagonists and uses therefor” (The University of Queensland, priority 2007, dated 2016).

B1: pegylated G-CSF: recombinant human pegylated G-CSF (granulocyte colony stimulating factor), Neulasta from Amgen (protein, UniProt P09919 31-207, looked up)
Granulocyte …: TPLGPASSLPQSFLLKCLEQVRKIQGDGAALQEKLVSECATYKLCHPEELVLLGHSLGIPWAPLSSCPSQALQLAGCLSQLHSGLFLYQGLLQALEGISPELGPTLDTLQLDVADFATTIWQQMEELGMAPALQPTQGAMPAFASAFQRRAGGVLVASHLQSFLEVSYRVLRHLAQP
modifications: PEG (pegfilgrastim)
notes: recombinant human pegylated G-CSF (granulocyte colony stimulating factor), Neulasta from Amgen

How the values were obtained:
[1] = test system: long-term reconstituting hematopoietic stem cells; experiment: HSC cycling and number in vivo following cytotoxic insult with 5-fluorouracil in wild-type and E-selectin KO mice
Experimental: Adult mice (10-14 week-old) with homologous deletion of the E-selectin gene were administered intravenously a single dose of 5-FU at 150 mg/kg. At days 2 and 6 following 5-FU, mice were injected intraperitoneally BrdU 100 mg/kg followed by a continuous dose of 1 mg/mL in their drinking water at a concentration of 1 mg/mL. 18 hours following the injection of BrdU. Mice were sacrificed, their bone marrow cells collected as described above and stained with the following combination of antibodies: a) biotinylated antibodies against lineage-specific antigens CD3, CD5, B220/CD45R, CD11b, Gr-1/Ly-6C/G, CD41, Ter119 together with streptavidin conjugated to PercP-Cy5.5; b) fluorescein isothiocyanate (FITC) conjugated anti-CD48; c) phycoerythrin (PE) conjugated anti-CD150; d) PECy7 conjugated anti-Sca-1/Ly-6A/E; f) allophycocyanin (APC) conjugated anti-CD117 antibodies. True hematopoietic stem cells with the phenotype Lineage-negative, Sca1-positive, CD117-positive, CD41-negative, CD48-negative, CD150-positive were counted and sorted as described above. Sorted cells were cytospun on glass slides and stained with anti-BrdU antibodies as described above.

[2] = test system: hematopoietic stem and progenitor cells; experiment: G-CSF mobilization after 8 rounds of cyclophosphamide chemotherapy in wild-type and E-selectin KO mice; type: in vivo; conditions: mice pre-treated with 8 fortnightly rounds of cyclophosphamide 200 mg/kg, 6 weeks rest, then G-CSF; FIG. 8
Experimental: Wild-type and E-selectin KO mice were first administered 8 consecutive rounds of chemotherapy. The chemotherapeutic agent used was the alkylating agent cyclophosphamide administered as a single intraperitoneal injection at 200 mg/kg. Mice were given 8 rounds of cyclophosphamide chemotherapy at fortnightly intervals, then left to recover for 6 weeks before administration of G-CSF (total 1 mg/kg as above) and blood collected 3 days later at HSC mobilization. Blood was analyzed for total leukocyte count, Colony forming cells and phenotypic HSC as described above.

[3] = test system: hematopoietic stem and progenitor cells; experiment: Mobilization of HSC with recombinant human pegylated G-CSF in wild-type and E-selectin KO mice; type: in vivo, C57BL/6 mice; conditions: 3-day course, total 1 mg/kg s.c.
Experimental: Mobilization was induced in wild-type C57BL/6 mice and in C57BL/6 mice carrying homologous deletion of the E-selectin gene (E-selectin KO mice), using recombinant human G-CSF following a mobilization dosing and protocol similar to that used for human patients.
Adult mice (10- to 14-week old males) were administered recombinant human pegylated G-CSF (granulocyte colony stimulating factor) subcutaneously. Two doses were given 36 hours apart, each at 0.5 mg/kg. The G-CSF used was Neulasta, from Amgen. Neulasta was diluted to 0.1 mg/mL in sterile saline for injection and 100 μL used per injection into 20 g mice. In some experiments, a cohort of ‘control’ mice received saline injections alone.
Blood containing the mobilized HSC, was collected 3 days following the initial G-CSF injection using heparin as anticoagulant (13 units of sodium heparin/mL blood). Four different assays were performed on the blood to determine the extent of HSC mobilization. Some of these assays are surrogate measures of mobilization that are commonly used in the clinical setting; that is they measure associated changes, not HSC content directly. These are total blood leukocyte counts and numbers colony forming cells (CFC) in the blood. The third assay based on phenotypic analysis (expression of a panel of surface markers which define long-term reconstituting HSC), while directly measuring HSC, also detect some progenitor cell populations. Phenotypic enumeration is commonly used to determine HSC mobilization in human patients (a different array of cell-surface markers are used in mice). […]
A) Blood leukocyte counts were measured on a Sysmex KX21 automated haematology analyser (Roche).
B) Colony forming cell assay. […] The number of colony forming cells (CFC) per mL of blood can then been calculated. […]

Row | Molecule | HSC numbers per femur, E-selectin-/- versus WT mice ([1]; day 7 after single dose 150 mg/kg, FIG. 4) | BrdU incorporation in hematopoietic stem cells, E-selectin knock-out versus wild-type mice ([1]; days 3 and 7 after single dose 150 mg/kg, BrdU in last 17 hours, FIG. 3) | CFC per mL of peripheral blood, E-selectin KO versus wild-type mice [2] | phenotypic HSC per mL of peripheral blood, E-selectin KO versus wild-type mice [2] | number of phenotypic HSC per mL of mobilized blood, E-selectin KO versus wild-type mice ([3]; FIG. 7C) | number of CFC per mL of mobilized blood, E-selectin KO versus wild-type mice ([3]; blood collected 3 days after first injection, FIG. 7B) | number of functional long-term reconstituting HSC per mL of mobilized blood, E-selectin KO versus wild-type mice ([3]; competitive long-term reconstitution assay)
1 | O=c1[nH]cc(F)c(=O)[nH]1 [5FU, 5-fluorouracil] | 5 fold | significantly lower | – | – | – | – | –
2 | B1 | – | – | 5 fold | 2.5 fold | 2.5 fold | 2.5 fold | 12 fold
